# Read-outs that look alike come from different tables or passages of the source.
# Tests used:
# [1] = target: P84S variant of the truncated E. coli SPase (Δ2-75) (Escherichia coli K-12 MG1655) (UniProt P00803); assay: steady state binding by the increase of arylomycin fluorescence (ex 320 nm, em 410 nm) with soluble N-terminally truncated E. coli SPase
# [2] = target: truncated wild type E. coli SPase that lacks the N-terminal membrane helices (Δ2-75) (Escherichia coli K-12 MG1655) (UniProt P00803); assay: as above
# [3] = target: S. epidermidis SpsIB S29P, in strain PAS9001 (Staphylococcus epidermidis RP62A); assay: cell-based or functional assay
# [4] = target: S. aureus NCTC 8325 SPase (SpsB), wild type, in the strain (Staphylococcus aureus NCTC 8325); assay: cell-based or functional assay
# [5] = target: E. coli MG1655 SPase (LepB) with Ala at residue 84, in the strain (Escherichia coli K-12 MG1655) (UniProt P00803); assay: cell-based or functional assay
# [6] = target: E. coli SPase (LepB) P84S, in strain PAS0232 (Escherichia coli K-12 MG1655) (UniProt P00803); assay: cell-based or functional assay
# [7] = target: P. aeruginosa PAO1 SPase (LepB) P84L, in the strain lepB(P84L) P. aeruginosa PAO1 (Pseudomonas aeruginosa PAO1) (UniProt Q9I5G7); assay: cell-based or functional assay
# [8] = target: E. coli MG1655 SPase (LepB) with Arg at residue 84, in the strain (Escherichia coli K-12 MG1655) (UniProt P00803); assay: cell-based or functional assay
# [9] = target: P. aeruginosa SPase (LepB) P84S, in strain PAS2006 (Pseudomonas aeruginosa PAO1) (UniProt Q9I5G7); assay: cell-based or functional assay
# [10] = target: E. coli MG1655 SPase (LepB) with His at residue 84, in the strain (Escherichia coli K-12 MG1655) (UniProt P00803); assay: cell-based or functional assay
# [11] = target: E. coli MG1655 SPase (LepB) with Ile at residue 84, in the strain (Escherichia coli K-12 MG1655) (UniProt P00803); assay: cell-based or functional assay
# [12] = target: E. coli MG1655 SPase (LepB) with Val at residue 84, in the strain (Escherichia coli K-12 MG1655) (UniProt P00803); assay: cell-based or functional assay
# [13] = target: E. coli MG1655 SPase (LepB) with Lys at residue 84, in the strain (Escherichia coli K-12 MG1655) (UniProt P00803); assay: cell-based or functional assay
# [14] = target: P. aeruginosa PAO1 SPase (LepB), wild type, in the strain (Pseudomonas aeruginosa PAO1) (UniProt Q9I5G7); assay: cell-based or functional assay
# [15] = target: E. coli MG1655 SPase (LepB) with Tyr at residue 84, in the strain (Escherichia coli K-12 MG1655) (UniProt P00803); assay: cell-based or functional assay
# [16] = target: E. coli MG1655 SPase (LepB) with Gln at residue 84, in the strain (Escherichia coli K-12 MG1655) (UniProt P00803); assay: cell-based or functional assay
# [17] = target: E. coli MG1655 SPase (LepB) with Gly at residue 84, in the strain (Escherichia coli K-12 MG1655) (UniProt P00803); assay: cell-based or functional assay
# [18] = target: E. coli MG1655 SPase (LepB) with Leu at residue 84, in the strain (Escherichia coli K-12 MG1655) (UniProt P00803); assay: cell-based or functional assay
# [19] = target: S. epidermidis RP62A signal peptidase IB (SpsIB), wild type, in the strain (Staphylococcus epidermidis RP62A); assay: cell-based or functional assay
# [20] = target: E. coli MG1655 SPase (LepB) with Asn at residue 84, in the strain (Escherichia coli K-12 MG1655) (UniProt P00803); assay: cell-based or functional assay
# [21] = target: S. aureus SPase (SpsB) P29S, in strain PAS8001 (Staphylococcus aureus NCTC 8325); assay: cell-based or functional assay
# [22] = target: E. coli MG1655 SPase (LepB) with Met at residue 84, in the strain (Escherichia coli K-12 MG1655) (UniProt P00803); assay: cell-based or functional assay
# [23] = target: E. coli MG1655 SPase (LepB), wild type, in the strain (Escherichia coli K-12 MG1655) (UniProt P00803); assay: cell-based or functional assay
# [24] = target: E. coli MG1655 SPase (LepB) with Thr at residue 84, in the strain (Escherichia coli K-12 MG1655) (UniProt P00803); assay: cell-based or functional assay
# [25] = target: E. coli MG1655 SPase (LepB) with Trp at residue 84, in the strain (Escherichia coli K-12 MG1655) (UniProt P00803); assay: cell-based or functional assay
# [26] = target: E. coli MG1655 SPase (LepB) with Asp at residue 84, in the strain (Escherichia coli K-12 MG1655) (UniProt P00803); assay: cell-based or functional assay
# [27] = target: E. coli MG1655 SPase (LepB) with Glu at residue 84, in the strain (Escherichia coli K-12 MG1655) (UniProt P00803); assay: cell-based or functional assay
# [28] = target: E. coli MG1655 SPase (LepB) with Cys at residue 84, in the strain (Escherichia coli K-12 MG1655) (UniProt P00803); assay: cell-based or functional assay
# [29] = target: S. epidermidis SpsIB S31P, in strain PAS9002 (Staphylococcus epidermidis RP62A); assay: cell-based or functional assay
# [30] = target: E. coli MG1655 SPase (LepB) with Phe at residue 84, in the strain (Escherichia coli K-12 MG1655) (UniProt P00803); assay: cell-based or functional assay
# [31] = target: detergent-solubilized full-length His-tagged E. coli SPase, wild type (Escherichia coli) (UniProt P00803); assay: steady-state binding by increase of arylomycin fluorescence, detergent-solubilized full-length SPase
# [32] = target: detergent-solubilized full-length His-tagged E. coli SPase, P84S variant (Escherichia coli) (UniProt P00803); assay: as above
# [33] = target: full-length His-tagged S. aureus SPase (SpsB), wild type (Staphylococcus aureus NCTC 8325); assay: steady-state binding by increase of arylomycin fluorescence, full-length SPase, buffer with 10% glycerol
# [34] = target: full-length His-tagged S. aureus SPase (SpsB), P29S mutant (Staphylococcus aureus NCTC 8325); assay: as above
# [35] = target: E. coli MG1655 SPase (LepB) with His at residue 84, in the strain (Escherichia coli K-12 MG1655) (UniProt P00803); assay: cell-based or functional assay; remark: listed apart in the source
# [36] = target: E. coli MG1655 SPase (LepB) with Phe at residue 84, in the strain (Escherichia coli K-12 MG1655) (UniProt P00803); assay: cell-based or functional assay; remark: listed apart in the source
# [37] = target: P84S variant of the truncated E. coli SPase (Δ2-75) (Escherichia coli K-12 MG1655) (UniProt P00803); assay: steady-state binding by increase of arylomycin fluorescence (ex 320 nm, em 410 nm), SPase in n-octyl-β-glucopyranoside micelles
# [38] = target: truncated wild type E. coli SPase that lacks the N-terminal membrane helices (Δ2-75) (Escherichia coli K-12 MG1655) (UniProt P00803); assay: as above
# [39] = target: full-length His-tagged S. aureus SPase (SpsB), wild type (Staphylococcus aureus NCTC 8325); assay: equilibrium binding by the increase of arylomycin fluorescence (ex 320 nm, em 410 nm) with full-length His-tagged S. aureus SPase
# [40] = target: full-length His-tagged S. aureus SPase (SpsB), P29S mutant (Staphylococcus aureus NCTC 8325); assay: as above
# [41] = target: detergent-solubilized full-length His-tagged E. coli SPase, wild type (Escherichia coli) (UniProt P00803); assay: equilibrium binding by the increase of arylomycin fluorescence (ex 320 nm, em 410 nm) with detergent-solubilized full-length E. coli SPase
# [42] = target: detergent-solubilized full-length His-tagged E. coli SPase, P84S variant (Escherichia coli) (UniProt P00803); assay: as above
substance,measurement,setting,value
arylomycin C16 (peptide),EC50 (read off the curve),[1],0.1 µM
same,EC50 (read off the curve),[2],2 µM
same,MIC (µg/mL) of arylomycin C16 for the strain,[3],8 µg/mL
same,MIC (µg/ml) of arylomycin C16 for the resistant S. epidermidis strain,[3],8 µg/mL
same,fold elevation of the MIC over the wild type strain,[3],32 fold
same,MIC (µg/mL) of arylomycin C16 for the strain,[4],> 128 µg/mL
same,MIC (µg/ml) of arylomycin C16 for the resistant S. aureus strain,[4],> 64 µg/mL
same,MIC of arylomycin C16 for the E. coli strain with this residue 84,[5],< 16 µg/mL
same,MIC (µg/mL) of arylomycin C16 for the strain,[6],2 µg/mL
same,MIC of arylomycin C16 for the E. coli strain with this residue 84,[6],< 16 µg/mL
same,MIC (µg/ml) of arylomycin C16 for the sensitive P. aeruginosa strain,[7],8 µg/mL
same,MIC of arylomycin C16 for the E. coli strain with this residue 84,[8],< 16 µg/mL
same,MIC (µg/mL) of arylomycin C16 for the strain,[9],8 µg/mL
same,MIC of arylomycin C16 for the E. coli strain with this residue 84,[10],< 16 µg/mL
same,MIC of arylomycin C16 for the E. coli strain with this residue 84,[11],< 16 µg/mL
same,MIC of arylomycin C16 for the E. coli strain with this residue 84,[12],< 16 µg/mL
same,MIC of arylomycin C16 for the E. coli strain with this residue 84,[13],< 16 µg/mL
same,MIC (µg/mL) of arylomycin C16 for the strain,[14],> 128 µg/mL
same,MIC (µg/ml) of arylomycin C16 for the resistant P. aeruginosa strain,[14],> 64 µg/mL
same,MIC of arylomycin C16 for the E. coli strain with this residue 84,[15],< 16 µg/mL
same,MIC of arylomycin C16 for the E. coli strain with this residue 84,[16],< 16 µg/mL
same,MIC of arylomycin C16 for the E. coli strain with this residue 84,[17],< 16 µg/mL
same,MIC (µg/ml) of arylomycin C16 for the sensitive E. coli strain,[18],0.5 µg/mL
same,MIC of arylomycin C16 for the E. coli strain with this residue 84,[18],< 16 µg/mL
same,MIC (µg/mL) of arylomycin C16 for the strain,[19],0.25 µg/mL
same,MIC (µg/ml) of arylomycin C16 for the sensitive S. epidermidis strain,[19],0.5 µg/mL
same,MIC of arylomycin C16 for the E. coli strain with this residue 84,[20],< 16 µg/mL
same,MIC (µg/mL) of arylomycin C16 for the strain,[21],2 µg/mL
same,MIC (µg/ml) of arylomycin C16 for the sensitive S. aureus strain,[21],2 µg/mL
same,MIC of arylomycin C16 for the E. coli strain with this residue 84,[22],< 16 µg/mL
same,MIC (µg/mL) of arylomycin C16 for the strain,[23],> 128 µg/mL
same,MIC (µg/ml) of arylomycin C16 for the resistant E. coli strain,[23],> 64 µg/mL
same,MIC of arylomycin C16 for the E. coli strain with this residue 84,[23],> 256 µg/mL
same,MIC of arylomycin C16 for the E. coli strain with this residue 84,[24],< 16 µg/mL
same,MIC of arylomycin C16 for the E. coli strain with this residue 84,[25],< 16 µg/mL
same,MIC of arylomycin C16 for the E. coli strain with this residue 84,[26],< 16 µg/mL
same,MIC of arylomycin C16 for the E. coli strain with this residue 84,[27],< 16 µg/mL
same,MIC of arylomycin C16 for the E. coli strain with this residue 84,[28],< 16 µg/mL
same,MIC (µg/mL) of arylomycin C16 for the strain,[29],> 128 µg/mL
same,fold elevation of the MIC over the wild type strain,[29],> 256 fold
same,MIC of arylomycin C16 for the E. coli strain with this residue 84,[30],< 16 µg/mL
same,Kd,[31],0.06 µM
same,Kd,[32],0.0057 µM
same,Kd,[33],1.28 µM
same,Kd,[34],0.13 µM
same,MIC of arylomycin C16 for the E. coli strain with this residue 84,[35],4 µg/mL
same,MIC of arylomycin C16 for the E. coli strain with this residue 84,[36],2 µg/mL
same,Kd,[37],0.039 µM
same,Kd,[38],0.979 µM
same,EC50 (read off the curve),[39],2 µM
same,EC50 (read off the curve),[40],0.2 µM
same,EC50 (read off the curve),[41],0.1 µM
same,EC50 (read off the curve),[42],0.01 µM
same,Kd,[42],0.00573 µM

# Reference: patent US20130281360A1
